Experimental data as given in patent publication US10857214B2, “Compositions and methods for treating gluten intolerance and disorders arising therefrom” (Codexis, Inc., priority 2015, dated 2020).
Square brackets hold non-standard residues; d marks the D form. Peptide text beside a SMILES is read from it. * marks the point of attachment. Sta = CC(C)C[C@H](N)[C@@H](O)CC(=O)O; Isovaleryl = CC(C)CC(=O)*

B1: neprosin: 29 kDa prolyl endoprotease isolated from Nepenthes pitcher fluid (fraction 2), SEQ ID NO.: 1 (protein)
chain: MQAKFFTFVILSSVFYFNYPLAEARSIQARLANKPKGTIKTIKGDDGEVVDCVDIYKQPAFDHPLLKNHTLQMQPSSYASKVGEYNKLEQPWHKNGECPKGSIPIRRQVITGLPVVKKQFPNLKFAPPSANTNHQYAVIAYFYGNASLQGANATINIWEPNLKNPNGDFSLTQIWISAGSGSSLNTIEAGWQVYPGRTGDSQPRFFIYWTADGYTSTGCYDLTCPGFVQTNNYYAIGMALQPSVYGGQQYELNESIQRDPATGNWWLYLWGTVVGYWPASIYNSITNGADTVEWGGEIYDSSGTGGFHTTTQMGSGHFPTEGYGKASYVRDLQCVDTYGNVISPTANSFQGIAPAPNCYNYQFQQGSSELYLFYGGPGCQ
B2: recombinant nepenthesin II: recombinant aspartic protease of Nepenthes, SEQ ID NO.: 20 (protein)
chain: QSSSGIETPVYAGDGEYLMNVAIGTPDSSFSAIMDTGSDLIWTQCEPCTQCFSQPTPIFNPQDSSSFSTLPCESQYCQDLPSETCNNNECQYTYGYGDGSTTQGYMATETFTFETSSVPNIAFGCGEDNQGFGQGNGAGLIGMGWGPLSLPSQLGVGQFSYCMTSYGSSSPSTLALGSAASGVPEGSPSTTLIHSSLNPTYYYITLQGITVGGDNLGIPSSTFQLQDDGTGGMIIDSGTTLTYLPQDAYNAVAQAFTDQINLPTVDESSSGLSTCFQQPSDGSTVQVPEISMQFDGGVLNLGEQNILISPAEGVICLAMGSSSQLGISIFGNIQQQETQVLYDLQNLAVSFVPTQCGAS
B3: recombinant nepenthesin I: recombinant aspartic protease of Nepenthes, SEQ ID NO.: 21 (protein)
chain: NGPSGVETSVYAGDGEYLMNLSIGTPAQPFSAIMDTGSDLIWTQCQPCTQCFNQSTPIFNPQGSSSFSTLPCSSQLCQALSSPTCSNNFCQYTYGYGDGSETQGSMGTETLTFGSVSIPNITFGCGENNQGFGQGNGAGLVGMGRGPLSLPSQLDVTKFSYCMTPIGSSTPSNLLLGSLANSVTAGSPNTTLIQSSQIPTFYYITLNGLSVGSTRLPIDPSAFALNSNNGTGGIIIDSGTTLTYFVNNAYQSVRQEFISQINLPVVNGSSSGFDLCFQTPSDPSNLQIPTFVMHFDGGDLELPSENYFISPSNGLICLAMGSSSQGMSIFGNIQQQNMLVVYDTGNSVVSFASAQCGAS

Key:
[1] = test system: Nepenthes enzymes; assay: enzyme inhibition testing, BSA digestion by Nepenthes enzymes, SDS-PAGE; format: biochemical; details: BSA 1 mg/ml, 0.12 μM Nepenthes enzymes, 15 min at 37° C.; inhibitors at 1 mM
Description: Inhibitors: PMSF (phenylmethylsulfonyl fluoride), P (pepstatin), L (leupeptin), E (EDTA and EGTA), DTT (dithiothreitol), ZPP (Z-Pro-Pro-aldehyde-dimethyl acetal). All inhibitor concentrations at 1 mM except where noted. Extract: fluid protein extract, M: lane markers. For enzyme inhibition testing, bovine serum albumin (1 mg/ml) was digested with 0.12 μM Nepenthes enzymes for 15 min at 37° C., quenched by brief boiling and then analyzed by 10% SDS-PAGE. The enzymes were pretreated with controls and inhibitors at 4° C. for 2 days prior to digestion experiments. PMSF, pepstatin, leupeptin, EDTA, EGTA, DTT from Sigma-Aldrich, and ZPP (Z-Pro-Pro-aldehyde-dimethyl acetal) from Bachem.

[2] = test system: crude gliadin; assay: SDS-PAGE and proteomic LC-MS/MS analysis of crude gliadin digests; format: biochemical, Triticum aestivum; details: crude gliadin slurry digested with purified neprosin alone
Description: Digestions at pH 2.5 and 37° C., for 90 min. All concentrations in μM. M: Molecular weight markers, and gliadin: total crude gliadin in the absence of protease. […] Peptide data from LC-MS/MS runs, with intensities obtained using Protein Deconvolution 1.0. […] A stock gliadin slurry of 20-50 mg/ml was prepared in acidic solution (100 mM glycine HCl, pH 2.5) and briefly sonicated to further break up large particulates and promote suspension. Digestions of 10 mg/mL gliadin slurries were initiated by addition of enzyme (pepsin, fluid enzymes or both) and held at 37° C. with gentle rotation. Digest progress was monitored by gravimetric analysis, optical transmission, SDS-PAGE and mass spectrometry. For gravimetric analysis, digests were quenched by boiling and treated with TCA/chloroform, followed by centrifugation to recover undigested or poorly digested protein. For monitoring with optical transmission, digestion reactions were conducted in 96-well plate with ≥3 replicates of each reaction condition, and turbidity monitored at 595 nm at 37° C. every 2 minutes, for 90 minutes (SpectraMax plate reader, Molecular Devices). The plate was shaken at medium speed briefly between measurements. The digests were quenched after 90 min reaction by boiling for 10 minutes (confirmed to have no impact on digestion profile, a posteriori). An aliquot of the reaction mixture was analyzed on an 8% SDS-PAGE gel. The remaining amount was centrifuged and the supernatant was analyzed by mass spectrometry. Supernatant was analyzed by data-dependent LC-MS/MS, in two 1-hour reversed phase gradient runs, configured for top-10 ion selection using CID in a high/low configuration. In one run, ion selection was restricted to 2+ and higher charge states. In the other run, ion selection was applied to 1+ charge states only. Data from both runs were combined and searched against all UniprotKB/Swiss-Prot entries for gliadin and glutenin from Triticum aestivum (25 proteins), using Mascot v2.3, configured for non-specific digestions and filtered for peptide hits with p<0.05. For estimation of peptide size distribution, all LC-MS spectra were combined and deconvoluted in Protein Deconvolution v1.0, with appropriate settings. For label-free quantitative analysis using the subset of the digest identified in the database search, the hit list was combined with the raw data in Mass Spec Studio and used to generate a set of peptide ion chromatograms, integrated over all isotopes to determine a weight-average intensity for each peptide sequence identified.

[3] = test system: protein standards; assay: cleavage preferences on protein standards, LC-MS/MS; format: biochemical
Description: C-terminal cleavage preferences (P1 position) as a function of storage time at elevated temperature. Fluid concentrate was incubated at 37° C. for 0-7 days. […] Data were collected from 2-minute in-solution digestions of protein standards at 37° C. (pH 2.5), and cleavage preferences were determined using LC-MS/MS methods. For each amino acid, cleavage preferences were estimated by calculating the number observed terminal residues relative to the total number of residues, in percent.
Data were generated and collected as described for FIG. 1A.
Data are shown as relative % cleavage to the total, as defined above, using LC-MS/MS data from a set of protein standards. Samples were digested in solution for 5 minutes at 37° C. in this comparison, for all three enzyme preparations.
Data are provided as described for FIG. 1C.
Data was generated using HCD fragmentation on an LC-Orbitrap Velos instrument, and data searched against the sequence of APLF in Mass Spec Studio assuming no enzyme specificity, and results were cut off at a peptide false discovery rate (FDR) of 0.5%. Figure discloses SEQ ID NO: 87.

[4] = test system: NOD DQ8 mice; assay: transgenic NOD/HLA-DQ8 mouse model of gliadin sensitivity

Row | Molecule | suppression of enzyme activity by proteolytic inhibitors [1] | weighted average peptide length for the low molecular weight fraction [2] | C-terminal (P1) cleavage specificity [3] | small intestinal CD3+ intraepithelial lymphocyte (IEL) counts ([4]; gliadin codigested with pepsin 100:1 and fluid enzyme 264:1 or nepenthesin II 100:1, pepsin alone is positive control) | tolerability ([4]; sensitized mice challenged three times per week for three weeks with 5 mg treated gliadin)
1 | CC(C)CC(=O)N[C@H](C(=O)N[C@H](C(=O)N[C@@H](CC(C)C)[C@@H](O)CC(=O)N[C@@H](C)C(=O)N[C@@H](CC(C)C)[C@@H](O)CC(=O)O)C(C)C)C(C)C [Pepstatin, pepstatin] (Isovaleryl-VV[Sta]A[Sta]-OH) | could only partially suppress enzyme activity | – | – | – | –
2 | B1 | – | 12.5 | dominant Pro-X cleavage specificity | – | –
3 | B2 | – | – | absence of C-terminal proline (P) cleavage | significant reductions in IEL counts, to levels indistinguishable from the gliadin-free diet control | well tolerated
4 | B3 | – | – | absence of C-terminal proline (P) cleavage | – | –
